In article PMC5575113:
pKd: −log10 of the molar value.

Key:
[1] = target: GroES^7I25A1 (E. coli)
[2] = target: GroES^7I25D1,4 (E. coli); test: MST; cochaperonin labelled with DyLight 650, unlabelled GroEL or GroEL^SR titrated (serial dilution of 15 samples), 30 min incubation; 50 mM TrisCl pH 7.5, 100 mM KCl, 10 mM MgCl2, 1 mM EDTA, 2 mM ADP, 0.5 mg/mL BSA; Monolith NT115, 80% LED, 40% IR-laser
[3] = target: GroES^7I25D1,3 (E. coli); test: as above
[4] = target: GroES^7I25D1,4,7 (E. coli); test: as above
[5] = target: GroES^7I25A_(1,4,7) (E. coli); test: MST; cochaperonin labelled with DyLight 650; unlabelled GroEL or GroEL^SR in a serial dilution of 15 samples; 50 mM TrisCl pH 7.5, 100 mM KCl, 10 mM MgCl2, 1 mM EDTA, 2 mM ADP, 0.5 mg/mL BSA; 30 min incubation
[6] = target: GroES^7I25A1,3 (E. coli); test: as above
[7] = target: GroES^7I25A_(1,4,6) (E. coli); test: as above
[8] = target: GroESI25A (E. coli) (UniProt P0A6F9); test: as above
[9] = target: GroES^7I25A1,4 (E. coli); test: as above
[10] = target: GroES^7I25A1,2 (E. coli); test: as above
[11] = target: GroESL27A (E. coli) (UniProt P0A6F9); test: as above
[12] = target: GroES^7I25A1 (E. coli); remark: listed apart in the source
[13] = target: GroES^7I25A_(1,4,7) (E. coli)
[14] = target: GroES^7I25A1,3 (E. coli)
[15] = target: GroES^7I25A_(1,4,6) (E. coli)
[16] = target: GroES^7I25A1,4 (E. coli)
[17] = target: GroES^7I25A1 (E. coli); remark: listed apart in the source
[18] = target: GroES^7I25A1,2 (E. coli)
[19] = target: GroES^7I25D1 (E. coli); test: MST; cochaperonin labelled with DyLight 650, unlabelled GroEL or GroEL^SR titrated (serial dilution of 15 samples), 30 min incubation; 50 mM TrisCl pH 7.5, 100 mM KCl, 10 mM MgCl2, 1 mM EDTA, 2 mM ADP, 0.5 mg/mL BSA; Monolith NT115, 80% LED, 40% IR-laser
[20] = target: GroES^7 (E. coli); test: as above
[21] = target: GroES^7I25A1,3 (E. coli); test: as above
[22] = target: GroES^7I25D1,2 (E. coli); test: as above
[23] = target: GroES^7I25A1,4 (E. coli); test: as above
[24] = target: GroES^7I25A1,2 (E. coli); test: as above
[25] = target: GroES^7 (E. coli); test: MST; cochaperonin labelled with DyLight 650; unlabelled GroEL or GroEL^SR in a serial dilution of 15 samples; 50 mM TrisCl pH 7.5, 100 mM KCl, 10 mM MgCl2, 1 mM EDTA, 2 mM ADP, 0.5 mg/mL BSA; 30 min incubation
[26] = target: GroES^7I25A1 (E. coli); test: as above

Sequence of GroEL (P0A6F5 whole entry): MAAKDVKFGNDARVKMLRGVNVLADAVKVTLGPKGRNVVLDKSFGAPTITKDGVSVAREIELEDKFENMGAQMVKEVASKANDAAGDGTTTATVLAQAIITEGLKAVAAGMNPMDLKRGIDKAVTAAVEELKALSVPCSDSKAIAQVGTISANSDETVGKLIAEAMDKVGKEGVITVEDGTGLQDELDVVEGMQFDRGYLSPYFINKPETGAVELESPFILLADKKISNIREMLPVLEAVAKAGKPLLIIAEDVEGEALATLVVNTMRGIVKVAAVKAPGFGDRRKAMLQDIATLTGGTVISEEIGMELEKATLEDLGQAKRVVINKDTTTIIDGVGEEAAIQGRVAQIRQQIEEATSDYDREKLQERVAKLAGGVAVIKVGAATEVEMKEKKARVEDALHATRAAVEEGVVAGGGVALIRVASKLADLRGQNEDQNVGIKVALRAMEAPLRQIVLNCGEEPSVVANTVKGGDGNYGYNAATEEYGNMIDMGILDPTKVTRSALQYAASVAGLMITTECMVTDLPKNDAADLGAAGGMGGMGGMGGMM

A yield of GroEL-mediated MDH folding [1] of 72%, a pKd [2] of 8.02 and a pKd [3] of 7.88 were found for “GroEL (from UniProt P0A6F5 1-548) (natural protein)” in this work. It also gave a pKd [4] of 7.40, a fold reduction of affinity against GroES^7 [5] of over 25 fold and a fold reduction of affinity against GroES^7 [6] of 2 fold. For the same substance, the fold reduction of affinity against GroES^7 [7] was over 25 fold, the pKd [8] was under 5.30 and the fold reduction of affinity against GroES^7 [9] was 2 fold. For the same substance, the fold reduction of affinity against GroES^7 [10] was 2 fold, the pKd [11] was under 5.30 and the ATPase activity of GroEL left in the presence of the variant [12] was 53.2%.
An inhibition of the ATPase of GroEL^SR [13] of 20%, an inhibition of the ATPase of GroEL^SR [14] of 50% and an inhibition of the ATPase of GroEL^SR [15] of 20% were found for “GroEL^SR (GroEL R452A/E461A/S463A/V464A) (from UniProt P0A6F5 1-548) (natural protein)” in this work. The inhibition of the ATPase of GroEL^SR [16] was 50%, the inhibition of the ATPase of GroEL^SR [17] was 80% and the inhibition of the ATPase of GroEL^SR [18] was 50%. For the same substance, the pKd [19] was 7.59, the pKd [2] was 7.14 and the pKd [20] was 8.34. It also gave a pKd [21] of 7.40, a pKd [22] of 7.41 and a pKd [23] of 7.29. It also gave a pKd [3] of 7.14, a pKd [24] of 7.46 and a pKd [25] of 8.43. It also gave a fold reduction of affinity against GroES^7 [6] of over 10 fold, a fold reduction of affinity against GroES^7 [9] of over 10 fold and a pKd [26] of 8.07. For the same substance, the fold reduction of affinity against GroES^7 [10] was over 10 fold.
